Results published in the nanobody polyreactivity screen of Harvey et al. (2022).

Test: yeast display, Sf9 membrane polyspecificity reagent, FACS + sequencing; frameworks hold sequencing errors
Method in brief: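 After 36–48 hours of galactose induction, yeast (Saccharomyces cerevisiae BJ5465) displaying a synthetic nanobody library were stained at 4 °C for 1 hour with 10% biotinylated, detergent-solubilized Sf9 membrane reagent. Streptavidin microbeads enriched the stained cells before FACS sorting into low and high (top ~1%) gates on anti-HA and streptavidin fluorescence. Each clone's polyreactivity label reflects its gate of origin.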
In the case of “QVQLVESGGGLVQAGGSLRLSCAASGIIFHGYAMGWYRQAPGKERDLVAAITASDGDTYYADSVKGRFTISRDNAKNTVYLQMNSMKPEDTAVYYCAADFWYYHTRMDYWGQGTQVTVSS”, the “polyreactivity (PSR sort gate)” value is reported as “low polyreactivity”.
With “QVQLVESGGGLVQAGGSLRLSCAASGIIFHGYAMGWYRQAPGKERELVAAITNSGGRTYYADSVKGRFTISRDNAKNTVYLQMNSLKPEDTAVYYCAADGHKYRMDYWGQGTQVTVSS” the “polyreactivity (PSR sort gate)” value was “low polyreactivity”.
For “QVQLVESGGGLVQAGGSLRLSCAASGIIFIFYDMGWYRQAPGKERELVATITSGTNTYADSVKGRFTISRDNAKNTVYLQMNSLKPEDTAVYYCNAGAVHKKPARDYWGQGTQVTVSS”, the “polyreactivity (PSR sort gate)” value was “low polyreactivity”.
With “QVQLVESGGGLVQAGGSLRLSCAASGIIFINYAMGWYRQAPGKEWELVAAITSSGGSTYYADSVKGRFTISRDNAKNTVYLQMNSLKPEDTAVYYCAAVSSYWGQGTQVTVSS” the “polyreactivity (PSR sort gate)” value was “low polyreactivity”.
For “QVQLVESGGGLVQAGGSLRLSCAASGIIFIVNAMGWYRQAPGKERELVAAISNGGSTNYADSVKGRFTISRDNAKNTVYLQMNSLKPEDTAVYYCAADDEGWWVTNYDYWGQGTQVTVSS”, the “polyreactivity (PSR sort gate)” value was “low polyreactivity”.
With “QVQLVESGGGLVQAGGSLRLSCAASGIIFIYNGMGWYRQAPGKERELVATINWSGGNTYYADSVKGRFTISRDNAKNTVSLQMNSLKPEDTAVYDCAVRGSRFWGYDYWGQGTQVTVSS” the “polyreactivity (PSR sort gate)” value was “low polyreactivity”.
With “QVQLVESGGGLVQAGGSLRLSCAASGIIFKSYAMGWSRQAPGKERELVAAITKRGGSTYYADSVKGRFTISRDNAKNTVYLQMNSLKPEDTAVYYCAADDGVGNTDDYWGQGTQVTVSS” the “polyreactivity (PSR sort gate)” value was “high polyreactivity”.
In the case of “QVQLVESGGGLVQAGGSLRLSCAASGIIFKYNAMGRYRQAPGKEREFVAAITGSGGSTYYADSVKGRFTISRDNAKNTVYLQMYSLKPEDTAVYYCARPQWRDWYGYWGQGTQVTVSS”, the “polyreactivity (PSR sort gate)” value is reported as “low polyreactivity”.
With “QVQLVESGGGLVQAGGSLRLSCAASGIIFKYYAMGWYRQAPGKEREFVATISRRGGSTYYAYSVKGRFTISRDNAKNTVYLQMNSLKPEDTAVYYCATEYSPGREYKFNFWGQGTQVTVSS” the “polyreactivity (PSR sort gate)” value was “high polyreactivity”.
In the case of “QVQLVESGGGLVQAGGSLRLSCAASGIIFKYYAMGWYRQAPGKERELVAAISWTGDSTYADSVKGRFTISRDNAKNTVYLQMNSLKPEDTAVYYCAVAFRRVRSLGEGYWGQGTQVTVSS”, the “polyreactivity (PSR sort gate)” value is reported as “low polyreactivity”.
With “QVQLVESGGGLVQAGGSLRLSCAASGIIFKYYAMGWYRQAPGKERELVAAITWSDTRTYYADSVKGRFTISRDNAMNTVYLQMNSLKPEDTAVYYCAVDEPSLYSWGGGYYWGQGTQVTVSS” the “polyreactivity (PSR sort gate)” value was “high polyreactivity”.
For “QVQLVESGGGLVQAGGSLRLSCAASGIIFKYYAMGWYRQAPGKERELVAVISRSGGGTYYADSVKGRFTISRDNAKNTVYLQMNSLKPEDTAVYYCAAERSSGFDYWGQGTQVTVSS”, the “polyreactivity (PSR sort gate)” value was “high polyreactivity”.
For “QVQLVESGGGLVQAGGSLRLSCAASGIIFKYYARGWYRQAPGKERELVAGITSGGSTYYADSVKGRFTISRDNAKNTVYLQMNSLKPEDTAVYYCATRVRDGSQPQYRRRHSYDYWGQGTQVTVSS”, the “polyreactivity (PSR sort gate)” value was “high polyreactivity”.
With “QVQLVESGGGLVQAGGSLRLSCAASGIIFKYYVMGWYRQAPGKERELVAGIRSGGNTYYADSVKGRFTISRDNAKNTVYFQMNSLKPEDTAVYYCNARPQFRFTDSYDYWGQGTQVTVSS” the “polyreactivity (PSR sort gate)” value was “high polyreactivity”.
With “QVQLVESGGGLVQAGGSLRLSCAASGIIFLLYSMGWYRQAPGKERELVAAITNGGRTNYADSVKGRFTISRDNAKNTVYLQMNSLKPEDTAVYYCNAVLSVPDYTLFDYWGQGTQVTVSS” the “polyreactivity (PSR sort gate)” value was “low polyreactivity”.
With “QVQLVESGGGLVQAGGSLRLSCAASGIIFLTNAMGWSRPAPAKERELVAAITAIGGSTYYADSVKGRFTISRDNAKNTVYLQMNSLKPEDTAVYYCAADFSYVYYLYDYWGQGTQVTVSS” the “polyreactivity (PSR sort gate)” value was “low polyreactivity”.
With “QVQLVESGGGLVQAGGSLRLSCAASGIIFNSYAMGWYRQAPGKERELVAAITRAGRTYYADSVKGRFPISRDNAKNTVDLQMNSLKPEDTAVYYCAAAFLSRVQGYDSWGQGTQVTVSS” the “polyreactivity (PSR sort gate)” value was “high polyreactivity”.
With “QVQLVESGGGLVQAGGSLRLSCAASGIIFNYYAMGWYRQAPGKERELVAAITRGGRTNYADSVKGRFTISRDNAKNTVYLQMNSLKPEDTAVYYCNAPAFYTYKSFYAHSGYDYWGQGTQVTVSS” the “polyreactivity (PSR sort gate)” value was “high polyreactivity”.
With “QVQLVESGGGLVQAGGSLRLSCAASGIIFPFYAMGWYRQAPGKERELVAAITSDGNTNYADSVKGRFTISRDNAKNTVYLQMNSLKPEDTAVYYCNAETQYGVLSWHSTRHDYWGQGTQVTVSS” the “polyreactivity (PSR sort gate)” value was “low polyreactivity”.
With “QVQLVESGGGLVQAGGSLRLSCAASGIIFPFYAMGWYRQEPGKERELVAAITSGDDTYYADSVKGRFTISRDNAKNTVYLQMNSLKPEDTAVYYCAADSPYVVAWPYVWYFTFDYCGQGTQVTVSS” the “polyreactivity (PSR sort gate)” value was “low polyreactivity”.
For “QVQLVESGGGLVQAGGSLRLSCAASGIIFPGNVMGWYRQAPGKERELVAGISSSGSRTYYADSVKGRFTISRDNAKNTVYLQMNSLKPEDTAVYYCAAEHQRSRGRRYYIGYDYWGQGTQVTVSS”, the “polyreactivity (PSR sort gate)” value was “low polyreactivity”.
With “QVQLVESGGGLVQAGGSLRLSCAASGIIFPLYAMGWYRQAPGKDRELVADITRVGSTYYADSVKGRFTISRDNAKNTVYLQMNSLKPEDTAVYYCNKQKRWTYSHYFPTTYDYWGQGTQVTVSS” the “polyreactivity (PSR sort gate)” value was “high polyreactivity”.
With “QVQLVESGGGLVQAGGSLRLSCAASGIIFPQYTMGWYRQAPGKERQLVAAITRSGGSTDYADSVKGRFTISRDNAKNTVYLQMNSLKPEDTAVYYCAAGWWRYKYPIGSSYNYWGQGTQVTVSS” the “polyreactivity (PSR sort gate)” value was “high polyreactivity”.
With “QVQLVESGGGLVQAGGSLRLSCAASGIIFPSYAMGWYRQAPGKERELVAAINSSGGSTYYADSVKGRFTISRDNAKNTVYLQMNSLKPEDTAVYYCAAEADLQWYPYSFPYPYYYWGQGTQVTVSS” the “polyreactivity (PSR sort gate)” value was “high polyreactivity”.
With “QVQLVESGGGLVQAGGSLRLSCAASGIIFPSYAMGWYRQAPGKERELVAAISLSGGRTYYADSVKGRFTISRDNAKNTVYLQMNSLKPEDTAVYYCAAYPTTRYSKYGYYWGQGTQVTVSS” the “polyreactivity (PSR sort gate)” value was “high polyreactivity”.
In the case of “QVQLVESGGGLVQAGGSLRLSCAASGIIFPSYAMGWYRQAPGKERELVAAISLSGGRTYYADSVKGRFTISRDNAKNTVYLQMYSLKPEDTAVYYCAAYPSTSYSKYGYYWGQGTLVTVSS”, the “polyreactivity (PSR sort gate)” value is reported as “high polyreactivity”.
For “QVQLVESGGGLVQAGGSLRLSCAASGIIFPVYAMGWFRQAPGKERELVATIDSGGGTYYADSVKGRFTISRDNANNTVYLQMNSLKPEDTAVYYCNASHPPKAELAHWGQGTQVTVSS”, the “polyreactivity (PSR sort gate)” value was “low polyreactivity”.
For “QVQLVESGGGLVQAGGSLRLSCAASGIIFPVYAMGWYRQAPGKERELVAAISSSGSSTYYADSVKGRFTISRDNAKNTVYLQMNSLKPEDTAVYYCAAVRYGLRRMDYWGQGTQVTVSS”, the “polyreactivity (PSR sort gate)” value was “high polyreactivity”.
For “QVQLVESGGGLVQAGGSLRLSCAASGIIFPYNTMGWYRQAPGKERELVASIDDGGSTNYADSVKGRFTISRDNAKNTVYLQMNSLKPEDTAVYYCNADLFFIYVRQPGYDYWGQGTQVTVSS”, the “polyreactivity (PSR sort gate)” value was “low polyreactivity”.
For “QVQLVESGGGLVQAGGSLRLSCAASGIIFPYYAMGWYRQAPGKERELVAAISSRDGRTYYADSVKGRFTISRDNAKNTVYLQMNSLKPEDTAVYYCAARAVGGVRGYRYDYWGQGTQVTVSS”, the “polyreactivity (PSR sort gate)” value was “high polyreactivity”.
With “QVQLVESGGGLVQAGGSLRLSCAASGIIFPYYTMGWYRQAPGKERELVARITNGGRTYYADSVKGRFTISRDNAKNTVYLQMNSLKPEDTGVYYCAADSRYDYEYWGQGTQVTVSS” the “polyreactivity (PSR sort gate)” value was “high polyreactivity”.
In the case of “QVQLVESGGGLVQAGGSLRLSCAASGIIFQLYAMGWYRQAPGKERELVASITLSGTTTYYADSVKGRVTISRDNAKNTVYLQMNSLKPEDTAVYYCAKEYYYWGQGTQVTVSS”, the “polyreactivity (PSR sort gate)” value is reported as “low polyreactivity”.
For “QVQLVESGGGLVQAGGSLRLSCAASGIIFQRNDMGRYRQAPGKERELVANIRDGGITYADSVKGRFTISRDNAKNTVYLQMNSLKPEDTAVYYCARDDTSPGYGDQSSNAAYYYWGQGTQVTVSS”, the “polyreactivity (PSR sort gate)” value was “low polyreactivity”.
In the case of “QVQLVESGGGLVQAGGSLRLSCAASGIIFQRNDMGWYRQAPGKERELVANIRDGGITYADSVKGRFTISRDNAKNTVYLQMNSLKPEDTAVYYCARDDTSPGYGDQSFNAAYYYWGQGTQVTVSS”, the “polyreactivity (PSR sort gate)” value is reported as “low polyreactivity”.
For “QVQLVESGGGLVQAGGSLRLSCAASGIIFQSYTMGWYRPATGKERELVAAIDSGGSTYYADSVKGRFTISRDNAKNTVYLQMNSLKREDTAVYYCAAEPDTYWYTFYYWGQGTQVTVSS”, the “polyreactivity (PSR sort gate)” value was “low polyreactivity”.
For “QVQLVESGGGLVQAGGSLRLSCAASGIIFQWYAMGWYSQAPGKERELVAAINSDGSTYYADSVKGRFTISRDNAKNTVYLQMNSLIPEDTAVYYCAADFIPLIGFDYWGQGTQVTVSS”, the “polyreactivity (PSR sort gate)” value was “low polyreactivity”.
In the case of “QVQLVESGGGLVQAGGSLRLSCAASGIIFQYYAMGWYRPAPGKEREWVAAITSSGDRTYYADSVKGRFTISRDNAKNNVILQMNSLNPEDTAVYYCNAVYYLDYHYGYEFGYWGQGTQVTVSS”, the “polyreactivity (PSR sort gate)” value is reported as “high polyreactivity”.
In the case of “QVQLVESGGGLVQAGGSLRLSCAASGIIFRDYGMGWSRQAPGKEREFVATITYSGGGTYYADSVKGRFTISRDKAKNTVYLQMNSLKPEDTAVYYCAAYPFYYDLAYDYWGQGTQVTVSS”, the “polyreactivity (PSR sort gate)” value is reported as “low polyreactivity”.
For “QVQLVESGGGLVQAGGSLRLSCAASGIIFRGNVMGWSRQAPGKERELVAAISGSGGRTYYADSVKGRFTISRDNAKNTVYLQMNSLKPEDTAVYYCNADKAIRYDYWGQGTQVTVSS”, the “polyreactivity (PSR sort gate)” value was “high polyreactivity”.
In the case of “QVQLVESGGGLVQAGGSLRLSCAASGIIFRHNAMGWYRQAPGKERELVAAISSGGNTYYADSVKGRFTISRDNAKNTVYLQMNSLKPEDTAVYYCAADVQDRYHRAWYDYWGQGTQVTVSS”, the “polyreactivity (PSR sort gate)” value is reported as “low polyreactivity”.
In the case of “QVQLVESGGGLVQAGGSLRLSCAASGIIFRLNAMGWYRQAPGKERELVAAIRRRGGSTYYADSVKGRFTISRDIAKNTVYLQMNSLKPEDTAVYYCAKDPHGSDFGYWGQGTQVTVSS”, the “polyreactivity (PSR sort gate)” value is reported as “low polyreactivity”.
For “QVQLVESGGGLVQAGGSLRLSCAASGIIFRLNTMGWYRQAPGKERELVAAITSGGSTQYADSVKGRFTISRDNAKNTVYLQMNSLKPEDSAVYYCAAGHRANYWAWHFYYPGDFWGQGTQVTVSS”, the “polyreactivity (PSR sort gate)” value was “low polyreactivity”.
For “QVQLVESGGGLVQAGGSLRLSCAASGIIFRNNAMGWYRQAPGKERELVAAISRRGGSTSYADSVKGRFTISRDNAKNTVYLQMNSLKPEDTAVYYCNKAGPYYGYPHYLFYYWGQGTQVTVSS”, the “polyreactivity (PSR sort gate)” value was “high polyreactivity”.
